Molecular target: T1, human thioredoxin-1 (Trx1) protein (human, UniProt P10599 1-105)
T1 construct: also called naked Trx1; antigen
T1 sequence (looked up): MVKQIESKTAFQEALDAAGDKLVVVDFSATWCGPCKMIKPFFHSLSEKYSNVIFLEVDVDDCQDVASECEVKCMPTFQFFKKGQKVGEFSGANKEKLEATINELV
Assay: ELISA on coated Trx1 (100 ng/well), antibody diluted 1/5 from 0.1 µM, fit with Prism

B1: monoclonal antibody B266-1 (antibody, V domains shown)
VH: EVQLQQSGAELVKPGASVKLSCTASGFNIKDTFMHWVKQRPEQGLEWIGRIDPANGNTKYDPKFQGKATITADTSSNTAYLQLSSLTSEDTAVYYCALLQYSAMDYWGQGTSVTVSS
VL: QIVLTQSPAIMSASPGEKVTMTCSASSRISYMYWYQQKPGTSPKRWIYDTSKLASGVPARFSGSGSGTSYSLTISTMEAEDAATYYCHQRSSYPTFGAGTKLELKS
Kd: 0.011 nM

Source: patent publication US20200200750A1 (E AND S HEALTHCARE, published 2020)
